According to publication PMC9794699:

Experiments:
[1] = molecular target: low-density lipoprotein receptor-related protein 1 (LRP1), endogenous in WI38 lung fibroblasts (human (endogenous in WI38)) (UniProt Q07954)
[2] = molecular target: low-density lipoprotein receptor-related protein 1 (LRP1), endogenous in WI38 lung fibroblasts (human (endogenous in WI38)) (UniProt Q07954); remark: listed apart in the source

Sequence of UniProt Q07954 (Q07954 20-4544): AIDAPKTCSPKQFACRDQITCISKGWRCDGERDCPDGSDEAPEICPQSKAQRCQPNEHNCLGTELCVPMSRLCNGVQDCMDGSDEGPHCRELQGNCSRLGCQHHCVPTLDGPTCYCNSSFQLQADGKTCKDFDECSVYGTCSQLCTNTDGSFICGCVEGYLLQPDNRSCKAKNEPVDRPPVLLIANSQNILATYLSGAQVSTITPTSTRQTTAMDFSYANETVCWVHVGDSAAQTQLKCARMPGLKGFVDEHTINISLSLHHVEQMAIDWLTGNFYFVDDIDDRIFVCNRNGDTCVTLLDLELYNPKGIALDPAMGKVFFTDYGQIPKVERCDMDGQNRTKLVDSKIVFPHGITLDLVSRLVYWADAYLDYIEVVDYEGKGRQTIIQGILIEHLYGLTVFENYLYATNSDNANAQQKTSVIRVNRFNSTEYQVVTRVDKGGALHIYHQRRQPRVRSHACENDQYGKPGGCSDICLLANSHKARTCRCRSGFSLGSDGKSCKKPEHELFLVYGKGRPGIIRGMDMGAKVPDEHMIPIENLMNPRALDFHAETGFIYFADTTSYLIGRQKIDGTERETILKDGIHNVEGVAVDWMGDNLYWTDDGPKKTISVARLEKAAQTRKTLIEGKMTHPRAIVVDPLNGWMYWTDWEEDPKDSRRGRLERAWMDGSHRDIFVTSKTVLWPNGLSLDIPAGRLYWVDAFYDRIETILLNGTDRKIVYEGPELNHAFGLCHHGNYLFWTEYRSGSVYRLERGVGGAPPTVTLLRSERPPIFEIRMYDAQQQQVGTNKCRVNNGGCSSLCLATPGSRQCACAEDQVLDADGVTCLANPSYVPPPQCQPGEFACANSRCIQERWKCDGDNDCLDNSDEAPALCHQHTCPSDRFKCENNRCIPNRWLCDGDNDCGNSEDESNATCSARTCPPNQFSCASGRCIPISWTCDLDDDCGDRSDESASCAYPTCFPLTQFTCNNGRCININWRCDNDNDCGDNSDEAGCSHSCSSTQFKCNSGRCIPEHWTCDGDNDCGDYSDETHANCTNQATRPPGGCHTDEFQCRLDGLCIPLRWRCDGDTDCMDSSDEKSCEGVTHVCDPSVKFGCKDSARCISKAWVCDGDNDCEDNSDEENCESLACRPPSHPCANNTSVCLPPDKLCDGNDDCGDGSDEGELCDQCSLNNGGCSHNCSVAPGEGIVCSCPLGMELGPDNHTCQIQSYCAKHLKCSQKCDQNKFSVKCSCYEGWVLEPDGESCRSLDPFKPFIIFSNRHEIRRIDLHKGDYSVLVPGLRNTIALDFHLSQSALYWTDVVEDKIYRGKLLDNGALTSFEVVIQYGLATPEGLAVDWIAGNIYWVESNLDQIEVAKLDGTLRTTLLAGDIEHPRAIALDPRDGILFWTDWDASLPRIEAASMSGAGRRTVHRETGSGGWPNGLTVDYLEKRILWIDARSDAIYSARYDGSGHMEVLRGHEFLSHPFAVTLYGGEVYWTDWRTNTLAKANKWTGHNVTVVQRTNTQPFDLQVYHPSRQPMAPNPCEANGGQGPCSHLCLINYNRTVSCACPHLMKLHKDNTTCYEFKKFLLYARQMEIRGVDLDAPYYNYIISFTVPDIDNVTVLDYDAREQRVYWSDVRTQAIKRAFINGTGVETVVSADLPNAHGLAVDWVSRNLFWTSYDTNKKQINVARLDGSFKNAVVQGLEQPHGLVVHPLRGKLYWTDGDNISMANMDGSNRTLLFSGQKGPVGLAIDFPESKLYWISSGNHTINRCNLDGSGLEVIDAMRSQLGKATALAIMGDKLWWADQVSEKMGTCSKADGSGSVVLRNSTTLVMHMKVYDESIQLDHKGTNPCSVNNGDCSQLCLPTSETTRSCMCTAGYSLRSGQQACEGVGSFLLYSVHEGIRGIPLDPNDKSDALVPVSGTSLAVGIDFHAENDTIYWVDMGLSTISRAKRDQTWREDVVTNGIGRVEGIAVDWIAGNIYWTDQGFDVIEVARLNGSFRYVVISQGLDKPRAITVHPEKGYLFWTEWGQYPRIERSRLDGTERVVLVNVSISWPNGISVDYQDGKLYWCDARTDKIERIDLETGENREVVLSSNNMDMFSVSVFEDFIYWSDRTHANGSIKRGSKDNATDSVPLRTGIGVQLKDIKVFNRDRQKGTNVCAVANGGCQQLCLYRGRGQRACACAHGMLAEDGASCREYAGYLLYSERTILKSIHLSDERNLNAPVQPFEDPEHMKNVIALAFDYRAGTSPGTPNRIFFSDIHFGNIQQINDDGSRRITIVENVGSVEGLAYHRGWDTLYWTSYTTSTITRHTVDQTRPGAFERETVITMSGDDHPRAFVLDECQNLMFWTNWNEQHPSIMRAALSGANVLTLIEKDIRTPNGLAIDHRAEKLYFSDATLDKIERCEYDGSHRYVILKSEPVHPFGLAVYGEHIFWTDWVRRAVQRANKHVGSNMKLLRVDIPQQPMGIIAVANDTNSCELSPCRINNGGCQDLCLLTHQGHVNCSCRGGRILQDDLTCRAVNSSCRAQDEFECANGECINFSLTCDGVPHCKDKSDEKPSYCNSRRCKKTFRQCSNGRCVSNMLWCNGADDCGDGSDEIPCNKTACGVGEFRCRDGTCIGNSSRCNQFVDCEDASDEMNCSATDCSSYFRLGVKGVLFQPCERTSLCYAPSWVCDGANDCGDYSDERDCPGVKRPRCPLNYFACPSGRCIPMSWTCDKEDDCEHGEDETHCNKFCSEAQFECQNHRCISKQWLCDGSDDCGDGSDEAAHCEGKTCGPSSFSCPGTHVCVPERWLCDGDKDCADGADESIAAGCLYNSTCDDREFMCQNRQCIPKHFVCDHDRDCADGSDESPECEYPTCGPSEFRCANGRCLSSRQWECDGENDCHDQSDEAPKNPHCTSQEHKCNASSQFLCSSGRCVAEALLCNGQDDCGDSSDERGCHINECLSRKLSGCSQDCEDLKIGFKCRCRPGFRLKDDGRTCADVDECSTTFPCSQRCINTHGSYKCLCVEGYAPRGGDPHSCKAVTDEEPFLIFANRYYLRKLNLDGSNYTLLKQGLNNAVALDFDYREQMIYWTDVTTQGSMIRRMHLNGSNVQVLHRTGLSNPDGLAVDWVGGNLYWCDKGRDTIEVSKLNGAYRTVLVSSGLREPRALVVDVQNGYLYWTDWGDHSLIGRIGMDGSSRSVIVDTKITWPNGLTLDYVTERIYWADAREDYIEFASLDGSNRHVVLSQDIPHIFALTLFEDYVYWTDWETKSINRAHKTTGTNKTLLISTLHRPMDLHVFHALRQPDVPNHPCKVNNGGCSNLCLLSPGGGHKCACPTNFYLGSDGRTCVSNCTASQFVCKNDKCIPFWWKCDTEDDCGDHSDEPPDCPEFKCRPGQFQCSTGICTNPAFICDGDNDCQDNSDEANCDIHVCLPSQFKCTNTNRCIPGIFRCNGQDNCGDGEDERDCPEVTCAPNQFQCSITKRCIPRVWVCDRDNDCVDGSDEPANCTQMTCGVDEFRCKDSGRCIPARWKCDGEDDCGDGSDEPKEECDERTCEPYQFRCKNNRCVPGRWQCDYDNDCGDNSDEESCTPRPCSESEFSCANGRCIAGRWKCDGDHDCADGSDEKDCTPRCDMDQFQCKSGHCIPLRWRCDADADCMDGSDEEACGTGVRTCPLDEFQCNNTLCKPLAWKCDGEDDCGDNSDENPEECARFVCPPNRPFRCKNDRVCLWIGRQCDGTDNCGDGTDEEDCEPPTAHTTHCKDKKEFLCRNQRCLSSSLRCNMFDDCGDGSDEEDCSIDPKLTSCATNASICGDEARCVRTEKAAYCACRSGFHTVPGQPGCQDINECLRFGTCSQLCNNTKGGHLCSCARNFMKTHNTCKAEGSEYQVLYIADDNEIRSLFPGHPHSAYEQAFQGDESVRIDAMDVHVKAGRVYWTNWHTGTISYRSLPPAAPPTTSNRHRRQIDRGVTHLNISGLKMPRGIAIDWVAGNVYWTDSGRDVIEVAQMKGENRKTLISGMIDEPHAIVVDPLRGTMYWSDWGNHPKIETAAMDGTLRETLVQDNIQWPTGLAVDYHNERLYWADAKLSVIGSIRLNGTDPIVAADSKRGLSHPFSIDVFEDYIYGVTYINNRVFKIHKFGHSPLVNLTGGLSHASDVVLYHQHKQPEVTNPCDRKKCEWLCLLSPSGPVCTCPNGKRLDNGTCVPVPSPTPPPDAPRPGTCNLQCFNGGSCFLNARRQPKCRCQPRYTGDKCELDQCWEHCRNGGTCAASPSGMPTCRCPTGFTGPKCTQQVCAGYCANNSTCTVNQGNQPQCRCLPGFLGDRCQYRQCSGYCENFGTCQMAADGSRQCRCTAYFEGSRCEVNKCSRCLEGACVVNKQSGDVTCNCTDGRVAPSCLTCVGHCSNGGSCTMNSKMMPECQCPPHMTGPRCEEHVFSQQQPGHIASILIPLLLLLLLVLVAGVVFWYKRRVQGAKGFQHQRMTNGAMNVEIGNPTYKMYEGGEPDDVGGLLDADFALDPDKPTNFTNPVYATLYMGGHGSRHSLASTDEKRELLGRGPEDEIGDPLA

## PRSS2 (serine protease PRSS2, wild type), ectopically expressed in 293T cells (from UniProt P07478 16-247) (enzyme)
[1]
  Rac-GTPase activity (G-LISA) in WI38 cells treated with CM from 293T cells expressing PRSS2, compared to CM from empty vector-transfected cells: 2 fold
  Rho-GTPase activity (G-LISA) in WI38 cells treated with PRSS2 CM (fold decrease): 3.2
[2]
  repression of Tsp-1 protein (western blot) in mock-transfected WI38 fibroblasts treated with CM from 293T cells expressing PRSS2: 58%
